Assay results taken from US20170320956A1 (KYMAB, published 2017).

Tests used:
mouse LIGHT = biological target: T1, mouse LIGHT (mouse, UniProt Q9QYH9 72-239, limits assumed); experiment: SPR ProteOn, mAb captured on anti-mouse IgG
T1 construct: also called murine LIGHT
T1 sequence (looked up): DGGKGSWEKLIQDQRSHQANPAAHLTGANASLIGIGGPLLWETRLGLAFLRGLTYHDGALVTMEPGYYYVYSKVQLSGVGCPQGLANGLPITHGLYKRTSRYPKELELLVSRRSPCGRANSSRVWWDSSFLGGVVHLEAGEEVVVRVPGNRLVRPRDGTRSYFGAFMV

[1] = biological target: T2, recombinant human LIGHT-214E, FLAG-tagged extracellular domain (human); experiment: HTRF competition, HVEM-Fc binding to Flag-hLIGHT-214E
T2 construct: Trimer; Biotinylated in some assays
T2 chain: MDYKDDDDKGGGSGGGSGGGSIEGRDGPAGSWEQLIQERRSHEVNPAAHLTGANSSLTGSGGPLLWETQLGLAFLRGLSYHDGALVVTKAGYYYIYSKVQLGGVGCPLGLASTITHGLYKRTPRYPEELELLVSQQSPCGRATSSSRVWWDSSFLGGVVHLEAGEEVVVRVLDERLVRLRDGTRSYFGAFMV
Procedure: (§1) The following methods were carried out with a titration of inhibitor in order to establish the clone potency as measured by IC50 values in the assay. 5 μl of Flag-tagged hLIGHT (in-house) diluted to 2.5 nM final concentration (10 nM working concentration) in HTRF buffer with 5 μl of a titration of antibody purified from hybridoma supernatant diluted in HTRF assay buffer from 300 nM final (1200 nM working concentration) was pre-incubated for 1 hour at room temperature. To wells used to define total binding, 5 μl of LIGHT (10 nM working, 2.5 nM final) and 5 μl of hybridoma maintaining media (HMM,)) were added. To wells used to define non specific binding (receptor only) 10 μl of HMM was added. Total and non specific binding wells were pre-incubated for 1 hr at RT in the same plate as wells containing titration of inhibitor.
(§2) LIGHT receptor was diluted in HTRF assay buffer and added to all wells, 5 μl/well of HVEM-Fc or LTβR-Fc (R&D systems) at 1.2 nM for HVEM (0.3 nM final) and 0.4 nM for LTβR (0.1 nM final).

[2] = biological target: T3, recombinant human LIGHT-214K, FLAG-tagged extracellular domain (human); experiment: SPR ProteOn, mAb captured on anti-mouse IgG, LIGHT 256 nM, 25 C
T3 construct: the IgK leader peptide is marked only by underlining (not visible here), so its residues were not removed; Trimer
T3 chain: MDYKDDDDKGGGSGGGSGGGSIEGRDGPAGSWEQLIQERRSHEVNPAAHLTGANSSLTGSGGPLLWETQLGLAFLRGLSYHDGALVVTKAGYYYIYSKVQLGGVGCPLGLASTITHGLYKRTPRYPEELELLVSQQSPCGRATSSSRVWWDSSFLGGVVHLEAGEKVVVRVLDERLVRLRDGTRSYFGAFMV
Procedure: (§3) SPR analysis was carried out using the ProteOn™ XPR36 Array System (BioRad). Anti-mouse IgG (GE Healthcare BR-1008-38) was immobilised on a GLC biosensor surface using amine coupling, the surface was then blocked using 1M ethanolamine. […] Apparent affinities for the LIGHT-antibody interaction were determined using the 1:1 model inherent to the ProteOn XPR36 analysis software. The assay was run using HBS-EP (Teknova) as running buffer and carried out at 25° C.

[3] = biological target: T2, recombinant human LIGHT-214E, …; experiment: cell-based or functional assay
[4] = biological target: human LIGHT-214E, full length, expressed on the surface of CHO-S cells (human, UniProt O43557 1-240); experiment: flow cytometry, CHO-S cells expressing hLIGHT-214E
[5] = biological target: T4, recombinant cynomolgus monkey LIGHT, FLAG-tagged extracellular domain (cynomolgus (Macaca fascicularis), UniProt E9NVF7 59-240); experiment: SPR ProteOn, mAb captured on anti-mouse IgG, LIGHT 256 nM, 25 C, apparent affinity
T4 construct: extracellular domain; also called cynomolgus LIGHT; cyno LIGHT
Procedure: as §3

[6] = biological target: T2, recombinant human LIGHT-214E, …; experiment: as above
Procedure: as §3

[7] = biological target: T2, recombinant human LIGHT-214E, …; experiment: HTRF competition, LTβR-Fc binding to Flag-hLIGHT-214E
Procedure: as §1, §2

B1: 117C06 (purified from hybridoma supernatant) (antibody, V domains shown)
VH: QVQLVQSGAEVKKPGASVKVSCKASGYTFVNFGISWVRQAPGQGLEWMGWISVYSGNTNYAQKLQGRVTLTTDTSTTTAYMELRSLRSDDTAVYYCARHNWNDYWGQGTLVTVSS
VL: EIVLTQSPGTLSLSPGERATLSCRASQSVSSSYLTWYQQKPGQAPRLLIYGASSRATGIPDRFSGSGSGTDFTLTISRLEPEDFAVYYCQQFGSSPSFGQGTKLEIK
notes: Murine constant / human variable chimeric IgG, kappa, Protein G purified from hybridoma supernatant
- binding result (mouse LIGHT): no binding
- IC50 [1]: 1.28 nM
- binding result [2]: no binding (tested: 256 nM)
- HT29 IL-8 release, IC50 [3]: 1.42 nM
- binding result [4]: binds
- Kd [5]: 2.82 nM
- Kd [6]: 1.03 nM
- IC50 [7]: 2.53 nM
